# Biological target: trimerized [change]-Tag (A/duck/Viet Nam/TG24-01/2005 (H5N1))
# Test: cell-based or functional assay
Substance,"hemagglutination unit (HAU), co-expression with H5-S-Tag in plants in vivo","hemagglutination unit (HAU), combination with H5-S-Tag in vitro"
S-Protein-GCN4 (reference 2),2 HAU,0 HAU
S-Protein-pII (reference 1),0 HAU,0 HAU
wild type S-Protein (from UniProt P61823 47-150),4 HAU,0 HAU

# Source: patent US20200181633A1
